In US20220193132A1 (NATIONAL RESEARCH COUNCIL OF CANADA, published 2022) one finds binding result, Bmax and Kd data, which are given here for two molecules.

In test [1] the target is T1, EGFRvIII fragment amino acid residues 1 to 18, displayed on yeast (human).
T1 construct: also called aa 1-18
T1 peptide: LEEKKGNYVVTDHGSCVR
The experiment in a line: yeast surface display, flow cytometry. (A flow cytometer gives signals particle by particle.)

For test [2], the target named is T2, wild type human EGFR, full length, overexpressed on U87MG cells (human, UniProt P00533 25-1210).
T2 construct: also called U87MG-EGFR wt; U87 WT
The experiment in a line: flow cytometry dose-response, U87MG EGFR wt cells.
Experimental: (§1) Prior to analysis, cells were plated such that they were not more than 80% confluent on the day of analysis. Unless otherwise stated, all media are kept are 4° C. and all incubations are performed on wet ice. Cells were washed in PBS, harvested by the addition of cell dissociation buffer (Sigma), centrifuged and resuspended in complete medium at a cell density of 2×10⁶ cells/mL. Fifty μL/well of cells were distributed in a polypropylene v-bottom 96 well plate and serial 1/3 dilutions of purified mAbs starting at 100 nM were added and incubated for 2 hours. […] Cells were washed and re-suspended in medium containing Propidium iodide to exclude dead cells from analysis. Samples were filtered through a 60 μm nylon mesh filter plate (Millipore, Ireland) to remove cell aggregates. Flow cytometry analyses were performed on 2,000 viable single-cells events gated on forward scattering, side scattering parameters and propidium iodide dye exclusion using a BD-LSRFortessa flow cytometer (Becton-Dickinson Biosciences, CA, USA) and a standard filter set using BD FACSDiva™ acquisition software, according to manufacturer's instructions.
Specific detection of antibody binding was calculated as the mean fluorescent intensity of binding to each primary antibody after background level subtraction of the mean fluorescent intensity of binding of mouse IgG control. The data were analyzed with GraphPad Prism v 6.0 software using one-site specific binding with Hill slope non-linear regression curve fit model to determine Bmax (maximum specific binding) and Kdₐₚₚ (concentration needed to achieve a half-maximum binding at equilibrium) for each mAb tested.

Test [3] concerns the target T3, EGFRvIII, full length, overexpressed on glioblastoma cells (human, UniProt P00533 298-623).
T3 construct: Cells overexpress full length EGFRvIII (deletion of exons 2-7 of EGFR); Cell line (U87MG or DKMG) is named under assay; also called U87MG-EGFRvIII; U87vIII
As to the kind of experiment: flow cytometry dose-response on DKMG EGFRvIII cells (n=1).
Experimental: as §1
(§2) These cells were grown in RPMI and 10% fetal bovine serum using standard culturing conditions.

Test [4] has as its target T3, EGFRvIII, full length, overexpressed on …. As to the kind of experiment: flow cytometry dose-response on DKMG EGFRvIII cells, apparent Kd (n=1).
Experimental: as §1, §2
Test [5] has the same target. The experiment in a line: flow cytometry dose-response on U87MG EGFRvIII cells, apparent Kd (n=2).
Experimental: as §1, §2

B1: hFc-13.1.2 (antibody, human IgG1, kappa, V domains shown)
VH: QVQLVESGGGVVQPGRSLRLSCAASGFTFSSYGMHWVRQAPGKGLEWVAVIWYDGSNKYYVDSVKGRFTISRDNSKNTLYLQMNSLRAEDTAVYYCARDGWQQLAPFDYWGQGTLVTVSS
VL: not shown
As to B1, the binding result in test [1] is recorded as “binds”; in test [2], “no binding”. Moreover, the Bmax in test [3] turned out to be 16500. Further, the Kd in test [4] is 0.947 nM; in test [5], 5.22 nM.

B2: hFc-5G6 (antibody, human IgG1, kappa, V domains shown)
VH: EVQLQQSGAELARPGASVKMSCKASGYTFTSYWMHWVKQRPGQGLEWIGAIYPGNSDISYNQKFKGKAKLTAVTSATTAYMELSSLTNEDSAVYYCTLYDYDPDYWGQGTTLTVSS
VL: not shown
notes: Chimeric antibody, mouse variable regions on human IgG1 / human kappa, produced in CHO cells; also called chimeric 5G6
Consider B2, for which the binding result in test [2] is given as “no binding”. The Bmax in test [3] is 16900. For the same molecule, the Kd is 0.832 nM in test [4] and 1.53 nM in test [5].
